Experiments:
Conditions in all cases: protein: recombinant; label: fluorescein-dT at T8; single-chain dumbbell, 18 bp with central nick, two tetraloops
[1] = target: T1, PARP-1 F1+F2 (24-kDa DBD) (Homo sapiens, UniProt P09874 1-214); test: fluorescence anisotropy; 25; 50 mM Tris-HCl pH 7.0, 150 uM ZnSO4, 4 mM DTT, 25 C; NaCl 0-200 mM (T2, as in cof; 10 nM DNA) or 25 mM (T3 mutants; 25 nM DNA)
PARP-1 F2 = PARP-1 F2 (Homo sapiens, UniProt P09874 103-214); test: fluorescence anisotropy; 75; 50 mM Tris-HCl pH 7.0, 150 uM ZnSO4, 4 mM DTT, 25 C; NaCl 0-200 mM (T2, as in cof; 10 nM DNA) or 25 mM (T3 mutants; 25 nM DNA)
[2] = target: T1, PARP-1 F1+F2 (24-kDa DBD); test: as above
[3] = target: T1, PARP-1 F1+F2 (24-kDa DBD); test: fluorescence anisotropy; 200; 50 mM Tris-HCl pH 7.0, 150 uM ZnSO4, 4 mM DTT, 25 C; NaCl 0-200 mM (T2, as in cof; 10 nM DNA) or 25 mM (T3 mutants; 25 nM DNA)
PARP-1 F2 K119I = PARP-1 F2 K119I (Homo sapiens, UniProt P09874 103-214, K119I); test: fluorescence anisotropy; 25 mM NaCl, one-site fit; 50 mM Tris-HCl pH 7.0, 150 uM ZnSO4, 4 mM DTT, 25 C; NaCl 0-200 mM (T2, as in cof; 10 nM DNA) or 25 mM (T3 mutants; 25 nM DNA)
PARP-1 F2 K141I/K142I [4] = target: T2, PARP-1 F2 K141I/K142I (Homo sapiens, UniProt P09874 103-214, K141I;K142I); test: as above
PARP-1 F2 K141I = PARP-1 F2 K141I (Homo sapiens, UniProt P09874 103-214, K141I); test: as above
PARP-1 F2 K134I = PARP-1 F2 K134I (Homo sapiens, UniProt P09874 103-214, K134I); test: as above
PARP-1 F2 W157I = PARP-1 F2 W157I (Homo sapiens, UniProt P09874 103-214, W157I); test: as above
PARP-1 F2 G135D = PARP-1 F2 G135D (Homo sapiens, UniProt P09874 103-214, G135D); test: as above
PARP-1 F2 K141I/K142I [5] = target: T2, PARP-1 F2 K141I/K142I; test: fluorescence anisotropy; 25 mM NaCl; apparent, one-site model; FA: 50 mM Tris-HCl pH 7, 150 uM ZnSO4, 4 mM DTT, 0-200 mM NaCl, 25 C, 10 nM DNA (mutants 25 nM DNA, 25 mM NaCl); EMSA: 50 mM Tris-HCl pH 7.4, 150 uM ZnSO4, 4 mM DTT, 10% glycerol, RT incubation, gel at 4 C; NMR complexes: 50 mM Tris pH 7.0, 150 uM ZnSO4, 4 mM DTT, 37 C
[6] = target: T3, DNA ligase III alpha zinc finger (DL3) (UniProt P49916-3 1-117); test: fluorescence anisotropy; 20 mM pyrophosphate pH 7.0; more similar to F2 than F1; FA: 50 mM Tris-HCl pH 7, 150 uM ZnSO4, 4 mM DTT, 0-200 mM NaCl, 25 C, 10 nM DNA (mutants 25 nM DNA, 25 mM NaCl); EMSA: 50 mM Tris-HCl pH 7.4, 150 uM ZnSO4, 4 mM DTT, 10% glycerol, RT incubation, gel at 4 C; NMR complexes: 50 mM Tris pH 7.0, 150 uM ZnSO4, 4 mM DTT, 37 C
T3 sequence: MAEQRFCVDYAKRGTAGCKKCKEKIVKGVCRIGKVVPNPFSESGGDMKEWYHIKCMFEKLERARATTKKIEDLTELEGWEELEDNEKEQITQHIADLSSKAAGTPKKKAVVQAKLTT

T1 sequence (P09874 1-214): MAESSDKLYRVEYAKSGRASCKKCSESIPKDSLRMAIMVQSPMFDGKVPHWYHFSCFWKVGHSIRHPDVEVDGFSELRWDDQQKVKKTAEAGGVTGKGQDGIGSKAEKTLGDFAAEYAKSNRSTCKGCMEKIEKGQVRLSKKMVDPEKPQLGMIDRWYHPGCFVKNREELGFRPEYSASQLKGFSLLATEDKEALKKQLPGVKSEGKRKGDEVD
T2 sequence (P09874 103-214 K141I/K142I): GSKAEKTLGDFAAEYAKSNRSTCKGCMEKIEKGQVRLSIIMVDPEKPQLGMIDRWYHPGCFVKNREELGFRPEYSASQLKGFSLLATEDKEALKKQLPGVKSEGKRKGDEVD
PARP-1 F2 G135D, sequence (P09874 103-214 G135D): as the sequence (P09874 103-214 K141I/K142I) above, with G33D, I39K, I40K counted along it
PARP-1 F2 K134I, sequence (P09874 103-214 K134I): as the sequence (P09874 103-214 K141I/K142I) above, with K32I, I39K, I40K counted along it
PARP-1 F2 K119I, sequence (P09874 103-214 K119I): as the sequence (P09874 103-214 K141I/K142I) above, with K17I, I39K, I40K counted along it
PARP-1 F2 W157I, sequence (P09874 103-214 W157I): as the sequence (P09874 103-214 K141I/K142I) above, with I39K, I40K, W55I counted along it
PARP-1 F2, sequence (P09874 103-214): as the sequence (P09874 103-214 K141I/K142I) above, with I39K, I40K counted along it
PARP-1 F2 K141I, sequence (P09874 103-214 K141I): as the sequence (P09874 103-214 K141I/K142I) above, with I40K counted along it

CGGTCGATCGTAAGATCGACCGGCGCTGGAGCTTGCTCCAGCGC (structured_DNA, 5'-phosphate) [44-nt nicked dumbbell, 5'-phosphate, fluorescein-dT]
Kd [1]: 0.0204 µM | Kd (PARP-1 F2): 0.218 µM | Kd [2]: 0.037 µM | Kd [3]: 0.0454 µM | Kd (PARP-1 F2 K119I): 4.55 µM | Kd (PARP-1 F2 K141I/K142I [4]): 3.93 µM | Kd (PARP-1 F2 K141I): 1.49 µM | Kd (PARP-1 F2 K134I): 3.33 µM | Kd (PARP-1 F2 W157I): 4.93 µM | Kd (PARP-1 F2 G135D): 1.71 µM | Kd (PARP-1 F2 K141I/K142I [5]): 3.93 µM | binding result [6]: binds

Source: publication PMC3094755, “The DNA-Binding Domain of Human PARP-1 Interacts with DNA Single-Strand Breaks as a Monomer through Its Second Zinc Finger”
